Consider five molecules from patent US20120141373A1 (University of California, published 2012).

For one assay, the target named is T1, epithin (mouse, UniProt P56677 615-855, limits assumed).
T1 construct: also called mouse homologue of MT-SP1; A11 (Epithin)
T1 sequence (looked up): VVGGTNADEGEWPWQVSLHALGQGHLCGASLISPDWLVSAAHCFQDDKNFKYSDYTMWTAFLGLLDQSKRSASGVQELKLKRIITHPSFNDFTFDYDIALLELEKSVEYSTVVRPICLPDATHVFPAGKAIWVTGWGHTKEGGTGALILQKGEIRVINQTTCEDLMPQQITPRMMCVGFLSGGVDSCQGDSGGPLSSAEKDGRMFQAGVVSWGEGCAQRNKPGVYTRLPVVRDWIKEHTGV
As to the kind of experiment: steady state kinetics, inhibition of epithin.

For assay [1], the target named is T2, human MT-SP1 protease domain (human, UniProt Q9Y5Y6 615-855).
T2 construct: domain: protease domain; also called hMT-SP1; matriptase
T2 sequence (looked up): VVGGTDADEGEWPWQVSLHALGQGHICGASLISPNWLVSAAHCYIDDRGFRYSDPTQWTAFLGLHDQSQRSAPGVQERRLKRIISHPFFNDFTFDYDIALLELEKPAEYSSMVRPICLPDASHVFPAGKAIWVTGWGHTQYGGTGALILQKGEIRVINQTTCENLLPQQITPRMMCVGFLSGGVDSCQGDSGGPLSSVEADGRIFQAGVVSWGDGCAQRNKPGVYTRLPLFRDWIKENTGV
Briefly: steady state kinetics, tight-binding inhibition of Spectrazyme-tPA cleavage.
Description: (§1) Briefly, all reactions were carried out in 50 mM Tris, pH 8.8, 50 mM NaCl, 0.01% Tween-20 in 96-well, medium binding, flat-bottomed plate (Corning), and cleavage of substrate (Spectrazyme-tPA (hexahydrotyrosyl-Gly-Arg-pNA), American Diagnostica, Greenwich, Conn.) was monitored in a UVmax Microplate Reader (Molecular Devices Corporation, Palo Alto, Calif.). […] Reactions to determine the IC₅₀'s were carried out by incubating 0.2 nM enzyme with inhibitor for >5 hours to assure steady-state behavior of the system. […] Inhibitor activity was also measured using the chromogenic substrate Spectrafluor tPA (American diagnostica, Inc.). […] Kaleidagraph 3.6 was used to fit all graphs and equations (Synergy Software, Reading, Pa.).

The target in assay [2] is T2, human MT-SP1 protease domain. Briefly: steady state kinetics.
Description: as §1
Assay [3] has the same target. As to the kind of experiment: steady state kinetics, probably pM (the same paragraph prints 720 µM for what Table 3 gives as 0.72 nM).
Description: as §1

B1: A11 Fab (Fab, V domains shown)
VH: EVQLVQSGGGLVKPGGSLRLSCAASGFTFSSYAMSWVRQAPGKGLEWVSAISGSGGSTYYADSVKGRFTISRDNSKNTLYLQMSSLRAEDTAVYYCVKDLGIAARRFVSGAFDIWGQGTMVTVSS
VL: EIVLTQSPGTLSLSPGERATLSCRASQSVSSSYLAWYQQKPGQAPRLLIYGASTRATGIPARFSGSGSGTDFTLTINSLEPEDFAVYYCQQRSNWPPGYTFGQGTKVEIKR
notes: Human Fab from a naive phage library, VH3 heavy chain and Vkappa3 light chain; The Fab was made in E. coli for biochemical assays and in T. reesei for crystallisation; also called Fab A11; recombinant A11 Fab
B1 displayed an inhibitory constant (Ki) in the assay with epithin of 87 nM.

B2: A11 H R100aA (Fab, V domains shown)
VH: EVQLVQSGGGLVKPGGSLRLSCAASGFTFSSYAMSWVRQAPGKGLEWVSAISGSGGSTYYADSVKGRFTISRDNSKNTLYLQMSSLRAEDTAVYYCVKDLGIAAARFVSGAFDIWGQGTMVTVSS
VL: EIVLTQSPGTLSLSPGERATLSCRASQSVSSSYLAWYQQKPGQAPRLLIYGASTRATGIPARFSGSGSGTDFTLTINSLEPEDFAVYYCQQRSNWPPGYTFGQGTKVEIKR
notes: also called ArgH100aAla; A11 mutant ArgH100aAla
B2 displayed a Ki in assay [1] of 1.5 nM. In assay [2], the “fold change of KI over wild-type A11” value was roughly 2 fold.

B3: A11 H R100bA (Fab, V domains shown)
VH: EVQLVQSGGGLVKPGGSLRLSCAASGFTFSSYAMSWVRQAPGKGLEWVSAISGSGGSTYYADSVKGRFTISRDNSKNTLYLQMSSLRAEDTAVYYCVKDLGIAARAFVSGAFDIWGQGTMVTVSS
VL: EIVLTQSPGTLSLSPGERATLSCRASQSVSSSYLAWYQQKPGQAPRLLIYGASTRATGIPARFSGSGSGTDFTLTINSLEPEDFAVYYCQQRSNWPPGYTFGQGTKVEIKR
notes: also called ArgH100bAla; A11 mutant ArgH100bAla
Take B3: the inhibitory constant (Ki) in assay [1] was 180 nM. Moreover, the “fold change of KI over wild-type A11” value in assay [2] came out at 250 fold.

B4: A11 H R100bK (Fab, V domains shown)
VH: EVQLVQSGGGLVKPGGSLRLSCAASGFTFSSYAMSWVRQAPGKGLEWVSAISGSGGSTYYADSVKGRFTISRDNSKNTLYLQMSSLRAEDTAVYYCVKDLGIAARKFVSGAFDIWGQGTMVTVSS
VL: EIVLTQSPGTLSLSPGERATLSCRASQSVSSSYLAWYQQKPGQAPRLLIYGASTRATGIPARFSGSGSGTDFTLTINSLEPEDFAVYYCQQRSNWPPGYTFGQGTKVEIKR
notes: also called ArgH100bLys; A11 mutant ArgH100bLys
Molecule B4 yielded an inhibitory constant (Ki) in assay [1] of 180 nM. For the same molecule, the “fold change of KI over wild-type A11” value in assay [2] is 250 fold.

B5: E2 Fab (Fab, V domains shown)
VH: QVQLVQSGGGLVKPGGSLRLSCAASGFTFSSYAMSWVRQAPGKGLEWVSAISGSGGSTYYADSVKGRFTISRDNSKNTLYLQMSSLRAEDTAVYYCARPYLTYPQRRGPQNVSPFDNWGQGTMVTVSS
VL: DIQMTQSPSSLSASVGDRVTITCRASQGISSYLAWYQQKPGKAPKLLIYAASSLQSGVPSRFSGSGSGTDFTLTISSLQPEDFAVYYCQQHGNLPYTFGDGTKVEIKR
notes: also called anti-MT-SP1 Fab antibody E2
The molecule B5 registered a Ki in assay [3] of 12000 nM.

Usually Ki stands for the equilibrium dissociation constant of an inhibitor or competing ligand from its target.
